Results reported in a protein production outcome set (Wang et al. 2014).

Experiment: label from the status in PepcDB records
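Also: failed if final PepcDB status was selected cloned or expressed and not failed if soluble or beyond.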

Sequence | protein production
MDNEMNYGSDYKFIPATSIESGHGIEVLRDLFCYTIQIVNICFVGNPETNDFVLVDAGMPKCANEIISIAKDRFGTNSRPKAIILTHGHFDHVGGIIELIKHWDVHVYAHQMEIPFLTGQQSYPEPDPTVEGGMVAKMSPLFPNEPIDLGNNVKALPTDGTVPHMPEFRWIHTPGHTPGHISLFREKDRTLIAGDAFVTVKQEYLYKVITQEQEISGPPRYLTTDWKAAKESVLKLEKLKPLTAVTGHGIPMSGELLSTSLKTLVQEFDKIAVPDYGKYIDKKMHLEHHHHHH | not failed
MMRLANGIVLDKDTTFGELKFSALRREVRIQNEDGSVSDEIKERTYDLKSKGQGRMIQVSIPASVPLKEFDYNARVELINPIADTVATATYQGADVDWYIKADDIVLTKDSSSFKAQPQAKKEPTQDKLEHHHHHH | not failed
MATEPLTHPTAAPKRTRDLLAGLSIAGLLLPEAVAYSSIAALPPQAGVIALFAGLLCYGLLGTSRFAIVSATSSSAAVLAAATLSLAGGDAQLRLSLAFALVLLTGVFFLLAGLFRLGGVTAFIAKPVLRGFAFGLALTIVLKQFATVVGVHLSTGNLVRFLPQLLEQWPQWNWAGAAVAAVALLVLGICSRIPYVPGGLVAVVIGIGAGQWFNLPAHGVDLIGVIELKLEVPSLPQLPFADWLRLGELAFALVMILYAESYGSISSFALKHGDRVSSNRDLLALGASNLLSGLFHGMPAGAGYSATSANEAAGARSRLAGLTAAAVMLLIVLTVLPYIALTPEPVLAAIVMYALGHGLSLQPLGRYFIWRRDRVLVICAVSAVLVLGVLDGLLLSVGISILLLLRQMSAADIQILGQLGSGHDFVDLSRHPQARQVPGVLILRPGEALFFANAERILGGALRLIRHVQAPIHSIILSLEESPDLDGTSIEALDEFFRQVSLEHKHLALARLKHEAKDALALLPSSREYQVLLSGTSVDDTLQESLRGWKAGAFSQA | failed
DIMGFVFNTRRTLFKDKRVRQALSILFDFEWVNHHLFNNIYTRTEGYWDGSILSSIGKPASEEEKALLAPYPDAVLPEVMDGSWRISKTDGSGMDRLNAQKAWKLLQEAGFTKKNNRLIAPNGLPFQFEIMTQSLEEEKVALAFQSNLSRLGIHAEIRTVDDSQYQNRLGMFNYDMIIGKLKNSLSPGNEQINRWSSASRNLKGSFNFSGASDPAIDAMITAILDAHSQVDFIAAVRALDRILISGSYYIPLYHLS | not failed
GPVPTPPDNIQVQENFNISRIYGKWYNLAIGSTCPWLKKIMDRMTVSTLVLGEGATEAEISMTSTRWRKGVCEETSGAYEKTDTD | failed
MILAVLFANSVGNVLIERFNGVPAEERLHWRSFLVKLGADNLKGVKNEELLVACHKSVYIVYTMLGDVSIFLVGKDEYDELALAETIYIITAAVKDVCGKPPTERVFLDKYGRICLCLDEIVWNGLLENTDKDRIKRLIRLKPPSEV | failed
MGHHHHHHSHMDEQSVESIAEVFRCFICMEKLRDARLCPHCSKLCCFSCIRRWLTEQRAQCPHCRAPLQLRELVNCRWAEEVTQQLDTLQLCSLTKHEEN | not failed
MTQQPRSTARTPASAEDPAAAAAHPPLAAPRPPAEHRVWPRTFHDRLTAPLPGLKAFARFAREGAVRPGPAGLADVPRLPCAPGPLPRVDARTVAVTWAGHASWVVRIGGLTVLTDPVWSRRILGTPPRVTPVGVPWSALPRVDAVVISHNHYDHLDAPTLRRLPRDTPVLVPAGLGRWFHRRRFTHVTELDWWEATELNGVRFDFVPAHHWSKRSLTDTCRTLWGGWVLTDPDGRRVYFAGDTGYGHWFTRIGRRYPGIDLALLPIGAYDPRWWLSDVHCDPEEAVRAAQDVGARRMAPMHWGTFVLSAEPVLEPLARVRAAWQQAGLPRERLWDLPIGASRVLE | failed
MRKAWVKTLALDRVSNTPVVILGIEGTNRVLPIWIGACEGHALALAMEKMEFPRPLTHDLLLSVLESLEARVDKVIIHSLKDNTFYATLVIRDLTYTDEEDEEAALIDIDSRPSDAIILAVKTGAPIFVSDNLVEKHSIELEVNETQDEEEEFKKFVENLNIDTFKQMIEKKREEDEEGES | not failed
MGHHHHHHSHGFNKFGGPRDQGSRHDSEQDNSDNNTIFVQGLGENVTIESVADYFKQIGIIKTNKKTGQPMINLYTDRETGKLKGEATVSFDDPPSAKAAIDWFDGKEFSGNPIKVSFAT | failed
MIKEARLNDYMGDEVWYVPATRNMLNMLGIRTHYIDNNSTGVNIFLKEPLYVGKVVINIYGIKIEKSVREYPKIPELVRKLGINIEYLPFNYTKNESYWENLKLKIWEIAERNGFLEYETYSKFPGVYYVIPVENYERFMKELSNFSDIVVVPGYKYPDEENIHKYLNTEHPFLGKDLIALGMLANDKPLYWRLPGIIEHALIVLIVAFVSYKIARSYLATLISATFVALDPLLFATGIVAMLDIHVAFFVALFMLFLTIRRLRISGISLGLAAATKLSGAFVFPILWAKILKEEDLKEFIISGVVLPVIAFLVPEIPIIKAIGFIPWLEEFMGSFSWHLSFKGEHPAEAPFWLWFISLKPFPFHFNPDVYAVTDPILMISMIAFIFAVPYVSLRRKGLGEIFWMFWSIIGFFALQYILGGKTQFIFYATPLVPPGAVALGVISYEIIKWEYFERSVKIYMNYLRSLKEFIKR | failed
GHMAKAYKQAGVDIEAGYQAVALMKEHVQKTMRPEVLGGIGGFGGLFDLSALGYRQPVLISGTDGVGTKLKLAFLLDRHDTIGIDCVAMCVNDIIVQGAEPLFFLDYIACGKAVPEKIAAIVKGVADGCVEAGCALIGGETAEMPGMYDEDEYDLAGFAVGVAEKERLITGETIQAGDALVGLPSSGLHSNGYSLVRRIVFEQAKLSLDEIYEPLDVPLGEELLKPTRIYAKLLRSVRERFTIKGMAHITGGGLIENIPRMLPPGIGARIQLGSWPILPIFDFLREKGSLEEEEMFSVFNMGIGLVLAVSPETAAPLVEWLSERGEPAYIIGEVAKGAGVSFAGGGRA | not failed
MGERGVEMRLRIRFESAECEVELYEEWAPETVRAIADALPIKSTANRWGDEIYFTTQVAVEKEENSKDVVELGDVAYWIPGKAICLFFGKTPISDDKIRPASAVNVIGRIVNSMEGLKGVADGESVVVERA | not failed
MVIGQKVLLARIPKMGDNYSTYLLDIEGTVCPISFVKETLFPYFTNKVPQLVQQDTRDSPVSNILSQFHIDNKEQLQAHILELVAKDVKDPILKQLQGYVWAHGYESGQIKAPVYADAIDFIKRKKRVFIYSSGSVKAQKLLFGYVQDPNAPAHDSLDLNSYIDGYFDINTSGKKTETQSYANILRDIGAKASEVLFLSDNPLELDAAAGVGIATGLASRPGNAPVPDGQKYQVYKNFETL | not failed
MNVFARSSVLAAEMIDVFDRTHTEKELVFQSKELCRDFIHSRITREGLSWSKVELDLPEPRGVLVDVSVVLLKLGDELECMRPYVYRNIAKQLNISVSVEAVVSDAFLSVATEVIAMGITWGKVVAIYAVAAGLAVDCVRLGHPVMVHTIVDSLGEFVRRSLVPWLKKRGGWVDILKCVVNMDSRAHVHWLSTAVLTWREFIKTMYVYLTK | failed
SLGELFAVFNEKLTIPEQEALMFLYAYMPTGDVTDYTGDYYLENVRLSDQARREMPWGKEIPDDVFRHFVLPIRVNNENLDDSRRVFYNELKDRVKNLSLHDAVLEVNHWCHEKVIYTPSDARTSAPLASVKTAYGRCGEESTFTVAALRSVGIPARQVYTPRWAHTDDNHAWVEAWVDGKWYFFGACEPEPVLNLGWFNAPASRGMLMHTKVFGRYTGQEEIMYETPNYTEINVIDNYAPTAKGSVLVTDAEGQPVADATVEFKVYNYAEFYTVATKHTDRSGHASLTAGKGDMLVWASKDGRFGYSKLSFGKDNELKITLDKNASETYSLPLDIVPPAEGANLPEVTPEQRTENDRRMAQEDSIRNAYVATFITEEQARTFAKENKLDETETVRLLIASRGNHQTLTDFLSDAVKADKAGQAISLLKVVSAKDLRDVSPEVLNDHLNNSGLPASEDFCSNVLNPRVANEMITPYKAFFRKEIPASEAEAFRKNPQALVEWCKKEITINNELNSQRIPMSPMGVWKARVADEKSRNIFFVSMARSLGIPAWIDEVTGKIQYRTFNDNNLKNGKVYDVDFEAAQQTQAPTGTLVARYRPIPSLSDPKYYSHFTLSKFRNGTFQLLNYDEGDVDMGGGATWSNLLKNGARLDTGYYMMVTGTRMASGAVLANVTFFTIEEGKTTTVDLVMRESKDQVQVIGNFNSESTYLPIGTSEPQSILQTCGRGYYVVAVLGAGQEPTNHALRDIAALSGEFEKWGRKMVLLFPSEEQYKKFRPSEFPGLPSTITYGIDVDGAIQKQIAESMKLPNSTILPMFIIGDTFNRVVFVSQGYTIGLGEQLMKVIHGEG | not failed
MLDSFEILKALKSLDLLKNAPSWWWPNALKFEALLGAVLTQNTKFEAVLKSLENLKNAFILENDDEINLKKIAYIEFSKLAECVRPSGFYNQKAKRLIDLSKNILKDFQSFENFKQEVTREWLLNQKGVGKESADAILCYVCAKEVMVVDKYSYLFLKKIGIEIEDYDELQHFFEKGVQENLNSALALYENTIPLAQLYARFHGKIVEFSKQKLELKL | failed
MSLQTLLFSFQGRIGRQAFWLWNICYYAMIAGFAMGSNLLFPDVAHLILPVFLLVVLVPDLAITAKRWHDRDKSSWWLLLNVPLVIGRMTIPAGELAVNTQPGMLETLISFVALLCGAWILVECGFLSGTDGSNRFGAEPKWIKKS | failed
MTVIDDRDMMGAESSELSEAGARDYFELLKPRVMSLVVFTAFAGLVLAPGEINPILGLIAILCIAVGAGASGALNMWYDADIDAVMTRTAKRPIPSGRIAPREALAFGLTLSAFSVVILGLAVNWFSAGLLAFTIFFYAVVYTMWLKRSTPQNIVIGGAAGAFPPMLGWACVTGGVSLDSVILFLIIFLWTPAHFWALALFKMRDYGAVGIPMMPNVAGERSTKNQMIVYAVLTAAAAVAPFFTGLASAGYGIFAAVLSAIFVYCSFDVRRMPEGDEKMLPAKKMFAYSVLYLFAIFSGLLADHFAPALKAVISGVL | failed
LVADASPFAMLEQAPDDLISHYDLTGRLLRVSPAWSRIIGGSVAEAAGRRTWDFIAPEDHPAVAAYYADLLREGAAPSSRLRMRVRHVAGDIRVLESRPMPIRNAEGVVTGFVDIARDITEQIETERRYQLALAQAHEA | failed
MIKLLKKINIKSIIELVKKDFKLKLISLSVGIVMWFLVIGGVNPVVTRQFTDVPVSFKNQSVLESRKLIRVSPENPTVTVTITGKRSDVYSVNKSDIVAEVNLQNGITSGAHRLSINYKVPYNVQFKSASDNDLLVTLDEEISKTYKVEVETIGQIKNKNQVVAKKEPADSEVVVKGPVSYVNKVKRVRCVVDVTNKDGDEVVQSKIVPVDELNKEVKKVSLSKTDTNVSIGFKNFKEVPIKLVEINSPPSDVRILKKDIVPNIISIVGNLTSLEQISQINTKPFDLSQIKESGSYNLNLELPSDVTLVNNDLKVVINIDVDKKIEKTLEIDTSNIEIENESGKDILLKGLQDKVKVTVRGYESDLAKLNAEDIRLYISVKKEDVGKNVQIKAKNIENIEIAKISNDIVQAIGK | failed
MVDISLIIGGPQGGGIESAGQIAIKSMVLLGYEVLGSREYHSNIMGAHSYYHLRVQQHRPRSLKLPVDGVLALDAESVFTHFRDVRPGGILVYDPGTKSTRVDAIQPMAGPLKKRLKSLFDSRGMQPVVESAVKLAEEAGARIVGLPLKEMLKTLSERTGAPVARVSRALNTLGLASMLYMLGVPVEYIEKAISLQFAGKEKVINMNVEAVRIAVDYVREAFGEPESRLPPGPRRGQTMMVATGNDLVAMGKIVGGLGVITYYPITPSSDEALYVEKHSYISIDGPLAEKLGYDKIAVAIVQMEDELASINAVLGAAAAGARASTTTSGPGFSLMNEAVSLAVEAEIPVVVTLWMRAGPSTGMPTRTGQQDLLHSIFSGHGDAPKIVLASGDHVEAFYDAIKAFNWAEEFQTPVIHLLDKYLASSMVSLAREDLDPSKVPITRGKLLDNPPADYRRYEVVEDGISPRARLGSATMVITGLEHDEYGYATEDPVMREIMMFKRERKFKVIEERIPDEEKAVLHGDSEASVALVSFGSTKQPILEALEMLRDEGVRARFAQVRLLYPFPGRLVEEMLEGVEKVIMVEQNLLGQLAMLLRAHTSIKPDSSIVKINGRPLYSFEVAGAVKRILETGEERVVVSHGS | failed
